Measurements: the supplement of paper PMC10567573

B1: ZNF24 (parent)
chain: THTKEQILELVVLEQFVAILPKEL
B2: MFF (parent)
chain: YTEGISQRMRVPEKLKVAPPNADL

Variants of: B1
Assay: protein stability index of a GFP-peptide fusion (GPS, HEK-293T) (PSI 1-6); higher = more stable
Settings: c terminus: a fixed tail appended
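Further: lentivirally expressed fusions sorted by FACS into six bins by GFP to DsRed ratio, PSI derived from sequencing read proportions per bin multiplied by bin number.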

Variant | protein stability index
THTKEQIVELVVLEQFVAILPKEL [L8V] | 2.4

Variants of: B2
Assay: as above
Settings: c terminus: a fixed tail appended

Variant | protein stability index
YTEGISPRMRVPEKLKVAPPNADL [Q7P] | 3.4
YTEGISLRMRVPEKLKVAPPNADL [Q7L] | 2.77
YTEGISERMRVPEKLKVAPPNADL [Q7E] | 3.26
YTEGISHRMRVPEKLKVAPPNADL [Q7H] | 1.81
YTEGISNRMRVPEKLKVAPPNADL [Q7N] | 2.74
YTEGISMRMRVPEKLKVAPPNADL [Q7M] | 2.59
YTEGISGRMRVPEKLKVAPPNADL [Q7G] | 2.65
YTEGISRRMRVPEKLKVAPPNADL [Q7R] | 2.81
YTEGISFRMRVPEKLKVAPPNADL [Q7F] | 1.82
YTEGISARMRVPEKLKVAPPNADL [Q7A] | 2.97
YTEGISYRMRVPEKLKVAPPNADL [Q7Y] | 1.75
YTEGISSRMRVPEKLKVAPPNADL [Q7S] | 2.45
YTEGISVRMRVPEKLKVAPPNADL [Q7V] | 3.21
YTEGISKRMRVPEKLKVAPPNADL [Q7K] | 2.39
YTEGISWRMRVPEKLKVAPPNADL [Q7W] | 2.21
YTEGISCRMRVPEKLKVAPPNADL [Q7C] | 2.9
YTEGISTRMRVPEKLKVAPPNADL [Q7T] | 2.71
YTEGISDRMRVPEKLKVAPPNADL [Q7D] | 3.43
YTEGISIRMRVPEKLKVAPPNADL [Q7I] | 2.85
YTEGISQAMRVPEKLKVAPPNADL [R8A] | 2.82
YTEGISQSMRVPEKLKVAPPNADL [R8S] | 2.43
YTEGISQMMRVPEKLKVAPPNADL [R8M] | 2.16
YTEGISQNMRVPEKLKVAPPNADL [R8N] | 3.18
YTEGISQDMRVPEKLKVAPPNADL [R8D] | 3.76

Variant | protein stability index
YTEGISQTMRVPEKLKVAPPNADL [R8T] | 2.76
YTEGISQHMRVPEKLKVAPPNADL [R8H] | 2.28
YTEGISQLMRVPEKLKVAPPNADL [R8L] | 2.2
YTEGISQGMRVPEKLKVAPPNADL [R8G] | 2.47
YTEGISQPMRVPEKLKVAPPNADL [R8P] | 2.81
YTEGISQCMRVPEKLKVAPPNADL [R8C] | 2.47
YTEGISQIMRVPEKLKVAPPNADL [R8I] | 1.57
YTEGISQWMRVPEKLKVAPPNADL [R8W] | 2.3
YTEGISQQMRVPEKLKVAPPNADL [R8Q] | 2.79
YTEGISQFMRVPEKLKVAPPNADL [R8F] | 1.95
YTEGISQKMRVPEKLKVAPPNADL [R8K] | 2.52
YTEGISQEMRVPEKLKVAPPNADL [R8E] | 3.6
YTEGISQVMRVPEKLKVAPPNADL [R8V] | 2.6
YTEGISQYMRVPEKLKVAPPNADL [R8Y] | 1.75
YTLGISQRMRVPEKLKVAPPNADL [E3L] | 2.58
YTNGISQRMRVPEKLKVAPPNADL [E3N] | 3.3
YTYGISQRMRVPEKLKVAPPNADL [E3Y] | 2.69
YTPGISQRMRVPEKLKVAPPNADL [E3P] | 2.29
YTMGISQRMRVPEKLKVAPPNADL [E3M] | 2.48
YTCGISQRMRVPEKLKVAPPNADL [E3C] | 2.28
YTAGISQRMRVPEKLKVAPPNADL [E3A] | 2.96
YTQGISQRMRVPEKLKVAPPNADL [E3Q] | 3.01
YTTGISQRMRVPEKLKVAPPNADL [E3T] | 2.56
YTRGISQRMRVPEKLKVAPPNADL [E3R] | 3.03

Variant | protein stability index
YTSGISQRMRVPEKLKVAPPNADL [E3S] | 2.54
YTFGISQRMRVPEKLKVAPPNADL [E3F] | 1.9
YTWGISQRMRVPEKLKVAPPNADL [E3W] | 1.53
YTHGISQRMRVPEKLKVAPPNADL [E3H] | 2.92
YTKGISQRMRVPEKLKVAPPNADL [E3K] | 2.41
YTIGISQRMRVPEKLKVAPPNADL [E3I] | 2.42
YTGGISQRMRVPEKLKVAPPNADL [E3G] | 2.3
YTDGISQRMRVPEKLKVAPPNADL [E3D] | 3.24
YTVGISQRMRVPEKLKVAPPNADL [E3V] | 2.44
YTEGISQRMTVPEKLKVAPPNADL [R10T] | 2.6
YTEGISQRMFVPEKLKVAPPNADL [R10F] | 1.44
YTEGISQRMEVPEKLKVAPPNADL [R10E] | 2.83
YTEGISQRMDVPEKLKVAPPNADL [R10D] | 2.71
YTEGISQRMPVPEKLKVAPPNADL [R10P] | 3.44
YTEGISQRMAVPEKLKVAPPNADL [R10A] | 2.17
YTEGISQRMLVPEKLKVAPPNADL [R10L] | 3.06
YTEGISQRMMVPEKLKVAPPNADL [R10M] | 2.48
YTEGISQRMQVPEKLKVAPPNADL [R10Q] | 3.11
YTEGISQRMSVPEKLKVAPPNADL [R10S] | 2.72
YTEGISQRMHVPEKLKVAPPNADL [R10H] | 2.52
YTEGISQRMCVPEKLKVAPPNADL [R10C] | 2.74
YTEGISQRMKVPEKLKVAPPNADL [R10K] | 3.16
YTEGISQRMGVPEKLKVAPPNADL [R10G] | 2.83
YTEGISQRMIVPEKLKVAPPNADL [R10I] | 2.97

Variant | protein stability index
YTEGISQRMNVPEKLKVAPPNADL [R10N] | 2.59
YPEGISQRMRVPEKLKVAPPNADL [T2P] | 3.48
YNEGISQRMRVPEKLKVAPPNADL [T2N] | 3.69
YMEGISQRMRVPEKLKVAPPNADL [T2M] | 3.46
YYEGISQRMRVPEKLKVAPPNADL [T2Y] | 3.2
YAEGISQRMRVPEKLKVAPPNADL [T2A] | 2.72
YQEGISQRMRVPEKLKVAPPNADL [T2Q] | 3.03
YWEGISQRMRVPEKLKVAPPNADL [T2W] | 3.17
YLEGISQRMRVPEKLKVAPPNADL [T2L] | 2.13
YREGISQRMRVPEKLKVAPPNADL [T2R] | 3.88
YDEGISQRMRVPEKLKVAPPNADL [T2D] | 4.18
YSEGISQRMRVPEKLKVAPPNADL [T2S] | 3.81
YIEGISQRMRVPEKLKVAPPNADL [T2I] | 1.65
YVEGISQRMRVPEKLKVAPPNADL [T2V] | 2.46
YHEGISQRMRVPEKLKVAPPNADL [T2H] | 2.69
YEEGISQRMRVPEKLKVAPPNADL [T2E] | 4.85
YCEGISQRMRVPEKLKVAPPNADL [T2C] | 2.65
YKEGISQRMRVPEKLKVAPPNADL [T2K] | 3.92
YGEGISQRMRVPEKLKVAPPNADL [T2G] | 3.85
YFEGISQRMRVPEKLKVAPPNADL [T2F] | 3.2
ITEGISQRMRVPEKLKVAPPNADL [Y1I] | 3.87
